Test results as given in article PMC3002993.

Columns and labels:
Assay in all cases: co-immunoprecipitation (HA-specific IP), Western blot densitometry
p7 of JFH1 = p7 of JFH1 (UniProt Q99IB8); details: Huh7.5 cells transfected with full-length genome, harvested 72 h later; two independent experiments; read off a plot
[1] = molecular target: nonstructural protein 3 (NS3) of JFH1 (UniProt Q99IB8); details: Huh7.5 cells transfected with full-length genome, harvested 72 h later; two independent experiments; read off a plot
[2] = molecular target: nonstructural protein 5A (NS5A) of JFH1mut4-6 (UniProt Q99IB8); details: Huh7.5 cells transfected with full-length genome, harvested 72 h later; two independent experiments; read off a plot
[3] = molecular target: envelope glycoprotein E2 of JFH1 (UniProt Q99IB8); details: harvested 72 h later, two independent experiments, read off a plot
E2 V341A of JFH1 = details: F77A-E2 genome; Huh7.5 cells, harvested 72 h later; two independent experiments; read off a plot
NS3 Q221L of JFH1 = details: W35F-NS3 genome; Huh7.5 cells, harvested 72 h later; two independent experiments; read off a plot

## HA- and Flag-tagged NS2 of JFH1mut4-6 (HAF-NS2) (from UniProt Q99IB8) CT1.h
p7 of JFH1
  percent of parent: 23%
[1]
  percent of parent: 26%
[2]
  percent of parent: 56%
[3]; Huh7.5 cells transfected with full-length genome
  percent of parent: 30%
[3]; genome also carries the pseudoreversion p7-E3D (CT1.h-p7), Huh7.5 cells
  percent of parent: 84%

## m1; m2 NS2:F77A; E2:V341A
E2 V341A of JFH1
  percent of parent: 89%

## m1; m4 NS2:W35F; NS3:Q221L
NS3 Q221L of JFH1
  percent of parent: 52%
